# Results: patent publication US20240400696A1
# Residue numbers refer to the chain shown, from its start.
# B1: AC3402 (bispecific antibody, V domains shown)
# VH: EVQLLESGGGIVQPGGSLKLSCAASGFTFNTYAMNWVRQAPGKGLEWVARIRSKPNNYATYYADSVKDRFTISRDDSKNTVYLQMNNLKTEDTAVYYCVRHENFGNSYVSWFAHWGQGTLVTVSS
# VL: ELVVTQEPSLTVSPGGTVTLTCRSSNGAVTSSNYANWVQQKPGQAPRGLIGGTNKRAPGTPARFSGSLLGGKAALTLSGVQPEDEAVYYCALWYPNLWVFGGGTKLTVL
# B2: AC3385 (bispecific antibody, V domains shown)
# VH: B1 VH with I51T, P55Y
# VL: B1 VL
# B3: AC3436 (bispecific antibody, V domains shown)
# VH: B1 VH with P55Y
# VL: B1 VL with L68S
# B4: AC3430 (bispecific antibody, V domains shown)
# VH: B1 VH with P55Y, N87S
# VL: B1 VL
# B5: AC3439 (bispecific antibody, V domains shown)
# VH: B1 VH with P55Y
# VL: B1 VL with L68T
# B6: AC3429 (bispecific antibody, V domains shown)
# VH: B1 VH with P55Y, N87Q
# VL: B1 VL
# B7: AC3408 (bispecific antibody, V domains shown)
# VH: B1 VH with P55Y, N57E
# VL: B1 VL
# B8: AC3412 (bispecific antibody, V domains shown)
# VH: B1 VH with P55Y, A59G
# VL: B1 VL
# B9: AC3433 (bispecific antibody, V domains shown)
# VH: B1 VH with P55Y
# VL: B1 VL with L69Q
# B10: AC3431 (bispecific antibody, V domains shown)
# VH: B1 VH with P55Y, N87Y
# VL: B1 VL
# B11: AC3404 (bispecific antibody, V domains shown)
# VH: B1 VH with P55W
# VL: B1 VL
# B12: AC3418 (bispecific antibody, V domains shown)
# VH: B1 VH with P55Y, Y62E
# VL: B1 VL
# B13: AC3389 (bispecific antibody, V domains shown)
# VH: B1 VH with R52Q, P55Y
# VL: B1 VL
# B14: AC3409 (bispecific antibody, V domains shown)
# VH: B1 VH with P55Y, Y58G
# VL: B1 VL
# B15: AC3434 (bispecific antibody, V domains shown)
# VH: B1 VH with P55Y
# VL: B1 VL with G70E
# B16: AC3413 (bispecific antibody, V domains shown)
# VH: B1 VH with P55Y, A59T
# VL: B1 VL
# B17: AC3414 (bispecific antibody, V domains shown)
# VH: B1 VH with P55Y, Y61D
# VL: B1 VL
# B18: AC3367 (bispecific antibody, V domains shown)
# VH: B1 VH with W47D, P55Y
# VL: B1 VL
# B19: AC3419 (bispecific antibody, V domains shown)
# VH: B1 VH with P55Y, Y62Q
# VL: B1 VL
# B20: AC3422 (bispecific antibody, V domains shown)
# VH: B1 VH with P55Y, A63K
# VL: B1 VL
# B21: AC3438 (bispecific antibody, V domains shown)
# VH: B1 VH with P55Y
# VL: B1 VL with L68N
# B22: AC3372 (bispecific antibody, V domains shown)
# VH: B1 VH with V48S, P55Y
# VL: B1 VL
# B23: AC3416 (bispecific antibody, V domains shown)
# VH: B1 VH with P55Y, Y61T
# VL: B1 VL
# B24: AC3371 (bispecific antibody, V domains shown)
# VH: B1 VH with V48G, P55Y
# VL: B1 VL
# B25: AC3411 (bispecific antibody, V domains shown)
# VH: B1 VH with P55Y, Y58W
# VL: B1 VL
# B26: AC3368 (bispecific antibody, V domains shown)
# VH: B1 VH with W47E, P55Y
# VL: B1 VL
# B27: AC3374 (bispecific antibody, V domains shown)
# VH: B1 VH with V48W, P55Y
# VL: B1 VL
# B28: AC3406 (bispecific antibody, V domains shown)
# VH: B1 VH with P55Y, N56E
# VL: B1 VL
# B29: AC3427 (bispecific antibody, V domains shown)
# VH: B1 VH with P55Y, Y82S
# VL: B1 VL
# B30: AC3369 (bispecific antibody, V domains shown)
# VH: B1 VH with V48A, P55Y
# VL: B1 VL
# B31: AC3373 (bispecific antibody, V domains shown)
# VH: B1 VH with V48T, P55Y
# VL: B1 VL
# B32: AC3423 (bispecific antibody, V domains shown)
# VH: B1 VH with P55Y, A63P
# VL: B1 VL
# B33: AC3383 (bispecific antibody, V domains shown)
# VH: B1 VH with I51A, P55Y
# VL: B1 VL
# B34: AC3428 (bispecific antibody, V domains shown)
# VH: B1 VH with P55Y, N87E
# VL: B1 VL
# B35: AC3424 (bispecific antibody, V domains shown)
# VH: B1 VH with P55Y, D68G
# VL: B1 VL
# B36: AC3415 (bispecific antibody, V domains shown)
# VH: B1 VH with P55Y, Y61E
# VL: B1 VL
# B37: AC3425 (bispecific antibody, V domains shown)
# VH: B1 VH with P55Y, Y82D
# VL: B1 VL
# B38: AC3426 (bispecific antibody, V domains shown)
# VH: B1 VH with P55Y, Y82G
# VL: B1 VL
# B39: AC3421 (bispecific antibody, V domains shown)
# VH: B1 VH with P55Y, Y62W
# VL: B1 VL
# B40: AC3435 (bispecific antibody, V domains shown)
# VH: B1 VH with P55Y
# VL: B1 VL with L69D
# B41: AC3370 (bispecific antibody, V domains shown)
# VH: B1 VH with V48E, P55Y
# VL: B1 VL
# B42: AC3410 (bispecific antibody, V domains shown)
# VH: B1 VH with P55Y, Y58F
# VL: B1 VL
# B43: AC3396 (bispecific antibody, V domains shown)
# VH: B1 VH with S53T, P55Y
# VL: B1 VL
# B44: AC3377 (bispecific antibody, V domains shown)
# VH: B1 VH with A49G, P55Y
# VL: B1 VL
# B45: AC3417 (bispecific antibody, V domains shown)
# VH: B1 VH with P55Y, Y62D
# VL: B1 VL
# B46: AC3407 (bispecific antibody, V domains shown)
# VH: B1 VH with P55Y, N57D
# VL: B1 VL
# B47: AC3420 (bispecific antibody, V domains shown)
# VH: B1 VH with P55Y, Y62G
# VL: B1 VL
# B48: AC3437 (bispecific antibody, V domains shown)
# VH: B1 VH with P55Y
# VL: B1 VL with L68K
# B49: AC3403 (bispecific antibody, V domains shown)
# VH: B1 VH with P55T
# VL: B1 VL
# Target: CD3
# Sequence (P07766 23-126): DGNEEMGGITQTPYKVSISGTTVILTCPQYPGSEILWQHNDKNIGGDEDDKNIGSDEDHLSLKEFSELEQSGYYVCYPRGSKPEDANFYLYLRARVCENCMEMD
# Test: Octet, crude lysate
row,Kd [nM],Binder
1,33.1,B1
2,425,B2
3,7.3,B3
4,4.8,B4
5,8.9,B5
6,7.1,B6
7,8.3,B7
8,8.2,B8
9,4.6,B9
10,5.2,B10
11,10.5,B11
12,9.7,B12
13,434,B13
14,11.3,B14
15,4.9,B15
16,10.7,B16
17,939,B17
18,40.2,B18
19,7.2,B19
20,8,B20
21,8.3,B21
22,11.2,B22
23,17.9,B23
24,71.5,B24
25,7.8,B25

row,Kd [nM],Binder
1,18.1,B26
2,34300,B27
3,575,B28
4,9.6,B29
5,8.3,B30
6,5.7,B31
7,8.2,B32
8,1180,B33
9,5.9,B34
10,5.4,B35
11,183,B36
12,9.8,B37
13,121,B38
14,37.2,B39
15,6.1,B40
16,165,B41
17,6.1,B42
18,4.8,B43
19,4.5,B44
20,63.2,B45
21,7.4,B46
22,8.3,B47
23,3.2,B48
24,11.1,B49
